“Also recorded” adds a separate entry of the source.
B1: EpAb2-6: anti-EpCAM neutralizing monoclonal antibody targeting EpEX; VH SEQ ID NO: 15, VL SEQ ID NO: 16 (antibody, listed as Homo sapiens, V domains shown)
VH: VKLQESGPELKKPGETVKISCKASGYTFTDYSMHWVKQAPGKGLKWMGWINTETGEPTYADDFKGRFAFSLETSASTAYLQINNLKNEDTATYFCARTAVYWGQGTTVTVSS
VL: DIQMTQSPSSLSASLGERVSLTCRASQEISVSLSWLQQEPDGTIKRLIYATSTLDSGVPKRFSGSRSGSDYSLTISSLESEDFVDYYCLQYASYPWTFGGGTKLEIKRADAAPTVS

Columns and labels:
ADAM17 and presenilin 2 = experiment: Western blotting of RIP proteins ADAM17 and presenilin 2 in HCT116 cells; format: cell-based, human; conditions: 10 μg/ml 16 h, then EpEX-His 50 nM 15 min, FIG. 7E
Procedure: FIGS. 7A to 7G. EpAb2-6 binds EpEX and induces apoptosis by F(ab′)2 and inhibits regulated intramembrane proteolysis (RIP) activation and HGFR signaling. (FIG. 7A) Binding affinity of IgG EpAb2-6 (mouse) and F(ab′)2 to EpEX-His (1 μg/ml) coated overnight was checked using ELISA (OD450). (FIG. 7B) HCT116 cells were treated with 100 μg/ml control IgG, Fc, or F(ab′)2 of EpAb2-6 for 24 h. The apoptotic and necrotic cells were quantified by fluorescein annexin V-FITC/PI double labeling. (FIG. 7C) HCT116 and HT29 cells were treated with 10 μg/ml control IgG, MT201, humanized EpAb2-6 (hEpAb2-6) or mouse hybridoma EbAb2-6 (mEpAb2-6) for 24 h. The apoptotic and necrotic cells were quantified by fluorescein annexin V-FITC/PI double labeling. (FIG. 7D) HCT116 cells were treated with 10 μg/ml control IgG, MT201, hEpAb2-6 or mEpAb2-6 for 16 h, followed by treatment with EpEX-His (50 nM) for 15 min. Levels of phosphorylated HGFR, AKT, and ERK, and (FIG. 7E) RIP proteins ADAM17 and presenilin 2 were examined by Western blotting. Anti-EpCAM antibody and crizotinib coordinately induces apoptosis in colon cancer cells. (FIG. 7F) HCT116 and HT29 cells were treated with 10 μg/ml NMIgG or EpAb2-6 and 4 μM HGFR inhibitor crizotinib for 24 h. The apoptotic and necrotic cells were quantified by fluorescein annexin V-FITC/PI double labeling. […] Cell invasion was assessed by a Transwell assay with matrigel after 24 h.
Whole cell extracts were prepared with RIPA buffer (50 mM Tris-HCl pH7.4, 1% NP-40, 0.5% Sodium deoxycholate, 0.1% SDS, 150 mM NaCl, 2 mM EDTA, 50 mM NaF). Protein concentrations of the cell lysates were determined by the Bradford assay. […]
Appropriate horseradish peroxidase-associated secondary antibodies (Millipore) were applied and the membranes were incubated at room temperature (RT) for 1 h. The protein bands were subsequently visualized with chemiluminescence reagents (Millipore) and detected on a BioSpectrum 600 Imaging system (UVP). The protein level was quantified from band intensity using Gel-Pro analyzer 3.1 (Media Cybernetics).

EpCAM [1] = biological target: T1, EpCAM (Homo sapiens, UniProt P16422); conditions: cited from earlier work
T1 sequence (P16422 24-314): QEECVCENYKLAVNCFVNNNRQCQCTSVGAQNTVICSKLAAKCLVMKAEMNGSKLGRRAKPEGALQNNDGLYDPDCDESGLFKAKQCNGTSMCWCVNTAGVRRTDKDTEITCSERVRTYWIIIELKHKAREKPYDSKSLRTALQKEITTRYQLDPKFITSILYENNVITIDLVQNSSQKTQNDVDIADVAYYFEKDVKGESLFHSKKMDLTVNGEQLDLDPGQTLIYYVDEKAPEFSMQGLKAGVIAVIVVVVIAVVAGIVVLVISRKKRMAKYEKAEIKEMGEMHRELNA

HT29 cells = experiment: Apoptosis assay, annexin V-FITC/PI double labeling, HT29; format: cell-based, human; conditions: 10 μg/ml 24 h, FIG. 7C
Procedure: FIGS. 7A to 7G. EpAb2-6 binds EpEX and induces apoptosis by F(ab′)2 and inhibits regulated intramembrane proteolysis (RIP) activation and HGFR signaling. (FIG. 7A) Binding affinity of IgG EpAb2-6 (mouse) and F(ab′)2 to EpEX-His (1 μg/ml) coated overnight was checked using ELISA (OD450). (FIG. 7B) HCT116 cells were treated with 100 μg/ml control IgG, Fc, or F(ab′)2 of EpAb2-6 for 24 h. The apoptotic and necrotic cells were quantified by fluorescein annexin V-FITC/PI double labeling. (FIG. 7C) HCT116 and HT29 cells were treated with 10 μg/ml control IgG, MT201, humanized EpAb2-6 (hEpAb2-6) or mouse hybridoma EbAb2-6 (mEpAb2-6) for 24 h. The apoptotic and necrotic cells were quantified by fluorescein annexin V-FITC/PI double labeling. (FIG. 7D) HCT116 cells were treated with 10 μg/ml control IgG, MT201, hEpAb2-6 or mEpAb2-6 for 16 h, followed by treatment with EpEX-His (50 nM) for 15 min. Levels of phosphorylated HGFR, AKT, and ERK, and (FIG. 7E) RIP proteins ADAM17 and presenilin 2 were examined by Western blotting. Anti-EpCAM antibody and crizotinib coordinately induces apoptosis in colon cancer cells. (FIG. 7F) HCT116 and HT29 cells were treated with 10 μg/ml NMIgG or EpAb2-6 and 4 μM HGFR inhibitor crizotinib for 24 h. The apoptotic and necrotic cells were quantified by fluorescein annexin V-FITC/PI double labeling. (FIG. 7G) HCT116 and HT29 cells were treated with 10 μg/ml NMIgG or EpAb2-6 and 10 μM HGFR inhibitor crizotinib. Cell invasion was assessed by a Transwell assay with matrigel after 24 h.
Cells were seeded and treated with 10 μg/ml mAb or inhibitor for 6 h; an unrelated mouse myeloma immunoglobulin used at appropriate dilution served as the IgG2a (Invitrogen #02-6200) isotype control. Apoptotic cells were detected using Annexin V-FITC and PI, and were analyzed using a flow cytometer (BD Immmunocytometry Systems). Early apoptosis was measured with the Annexin V-FITC Apoptosis Detection kit II (BD Pharmingen). Late apoptotic nuclei were detected with propidium iodide (PI) staining.

HCT116 cells = experiment: Apoptosis assay, annexin V-FITC/PI double labeling, HCT116; format: cell-based, human; conditions: 10 μg/ml 24 h, FIG. 7C
EpCAM [2] = experiment: Antibody binding to EpCAM wild-type and mutants expressed in HEK293T cells (immunofluorescence, flow cytometry, cellular ELISA); set-up: species or system human; conditions: HEK293T; immunofluorescence, flow cytometry, cellular ELISA; FIG. 8E-8G
Procedure: FIGS. 8A to 8G. EpAb2-6 binds to both EGF-like domain I and II of EpCAM. HEK293T cells were transfected with full length or EGF like-domain deletion mutant EpCAM-V5. Antibody binding was assessed by (FIG. 8A) Western blotting, (FIG. 8B) flow cytometry, and (FIG. 8C) immunofluorescence. (FIG. 8D) EpCAM mutants were constructed with amino acid substitutions in the EGF-I (Y32A) and EGF-II (L94A, Y95A, or D96A) domains. EpCAM wild-type and mutant proteins were expressed in HEK293T cells. Binding of MT201, EpAb2-6 and EpAb23-1 to EpCAM wild-type and mutants were evaluated by (FIG. 8E) immunofluorescence, (FIG. 8F) flow cytometry, and (FIG. 8G) cellular ELISA.
A previous study identified the binding epitope of EpAb2-6 antibody as the LYD motif in EpCAM, which corresponds to amino acid residues 94-96; in particular, residue 95 (Y95) plays a major role in EpAb2-6 binding (Liao et al., 2015). […] Therefore, we wanted to determine whether the antibody binds to EpCAM at both EGF-like domains of EpEX (FIG. 8A, FIG. 8B, FIG. 8C). To confirm that EpAb2-6 recognizes the LYD motif in EpCAM, we constructed cDNA sequences encoding the first (aa 27-59; EGF-I domain) and second (aa 66-135; EGF-II/TY domain) EGF-like repeats of EpCAM. PCR-based site-directed mutagenesis was then used to introduce mutations into each domain (FIG. 8D). The reactivity of EpAb2-6 antibody toward these EpCAM mutants was evaluated by immunofluorescence (FIG. 8E), flow cytometry (FIG. 8F), and cellular ELISA (FIG. 8G).

cancer cells = conditions: comparison in the description; previous work; cited from earlier work

| Molecule | levels of phosphorylated ADAM17 and presenilin 2 (ADAM17 and presenilin 2) | EpCAM domains bound (EpCAM [1]; other anti-EpCAM antibodies, comparison in the description) | apoptosis (HT29 cells) | apoptosis (HCT116 cells) | antibody binding to EpCAM with mutations at Y32 (EGF-I domain) or Y95 (EGF-II domain) (EpCAM [2]) | inducing apoptosis of cancer cells (cancer cells) | binding epitope in EpCAM (EpCAM [1]; previous study (Liao et al., 2015)) |
| --- | --- | --- | --- | --- | --- | --- | --- |
| MT201: human anti-EpCAM antibody, adecatumumab (MT201) | no such effects | target only the well-described EGF I domain of EpCAM; also recorded: binding to domain I only | did not show such effects | did not show such effects | did not affect | failing to | – |
| B1 | decreased | – | inducing apoptosis | inducing apoptosis | marked reductions | induces cancer cell apoptosis | LYD motif |

Reference: patent US20250269018A1, “COMBINED CANCER THERAPY WITH AN EPITHELIAL CELL ADHESION MOLECULE (EPCAM) INHIBITOR AND A HEPATOCYTE GROWTH FACTOR RECEPTOR (HGFR) INHIBITOR” (ACADEMIA SINICA, priority 2021, published 2025)
